Results as given in US20040106557A1.
Ends that are not written are not given here.

B1: chemically synthesized peptide C-4 with GA flanks (…) (peptide)
peptide: GACVAYCIEHHCWTCGA
modifications: disulfide (positions not given here); not fully specified (bridges); also: cyclic, disulphide bonds between cysteines, pairing of the four Cys not given here

Tests used:
[1] = target: Prostate specific antigen (PSA), purified from human seminal fluid (human) (UniProt P07288); experiment: inhibition IFMA: 200 µl fraction preincubated with PSA captured by MAb 5E4, then GST-C4 (167 nM); competitor GST-C-4
[2] = target: PSA-alpha-2-macroglobulin complex (PSA-A2M), purified (human) (UniProt P07288); experiment: cell-based or functional assay

| reduction of the binding of GST-peptide to PSA (%) [1] [%] | enzyme activity of A2M-complexed PSA (S-2586, OD 405 nm), 50-fold molar excess of peptide [2] [fold] | Binder |
| --- | --- | --- |
| 30 |  | CVAYCIEHHCWTC (peptide, part only; not given: vector flanking residues, part only) [peptide cleaved from GST-C-4 by thrombin (about 3 kD, estimated 31 residues)] |
|  | 2 | B1 |
